Measurements: patent US20210147519A1 (Regeneron, published 2021)

Columns and labels:
[1] = biological target: T1, native human complement component C1q protein purified from human serum (Quidel) (human, UniProt P02745 23-245; P02746 28-253; P02747 29-245); assay: cell-based or functional assay
[2] = biological target: T1, native human complement component C1q …; assay: cell-based or functional assay; remark: listed apart in the source
[3] = biological target: T1, native human complement component C1q …; assay: cell-based or functional assay; remark: listed apart in the source
[4] = biological target: T2, IsdB expressed on the surface of S. aureus Wood 46 (Staphylococcus aureus); assay: ELISA on plate-coated S. aureus Wood 46
T2 construct: whole, on cells
Method: Briefly, S. aureus Wood 46 was grown in RPMI overnight, washed in PBS and adjusted to an OD₆₀₀ of 0.25. MaxiSorp 96 well microtiter plates were coated overnight with 100 μl of S. aureus culture per well. Plates were washed and blocked with 3% BSA. […] Anti-human HRP conjugated secondary antibody was added to washed plates. Luminescence reagents (SuperSignal Pico) were then added to the wells and signal was detected in a plate reader (Victor X3 plate reader, Perkin Elmer) immediately. Luminescence values were analyzed by a four-parameter logistic equation over a 7-point response curve (GraphPad Prism) to determine the binding EC₅₀, of the antibodies.

[5] = biological target: T1, native human complement component C1q …; assay: SPR Biacore, captured Ab, hC1q analyte, 25C
[6] = biological target: T1, native human complement component C1q …; assay: SPR Biacore, captured Ab, hC1q analyte, 37C
[7] = biological target: T3, Recombinant bacterial IsdB expressed with a hexahistidine tag (IsdB-6xHis; REGN2655) (Staphylococcus aureus, UniProt A6QG30 42-613); assay: SPR Biacore, captured Ab, IsdB-6xHis analyte, 25C
[8] = biological target: T3, Recombinant bacterial IsdB expressed …; assay: SPR Biacore, captured Ab, IsdB-6xHis analyte, 37C
[9] = biological target: T1, native human complement component C1q …; assay: SPR Biacore, captured Ab, hC1q analyte, 25C; 25 C; hC1q binding to the C1q arm of the bispecific antibody
[10] = biological target: T1, native human complement component C1q …; assay: SPR Biacore, captured Ab, hC1q analyte, 37C; 37 C; hC1q binding to the C1q arm of the bispecific antibody
[11] = biological target: T1, native human complement component C1q …; assay: competition ELISA, 6 nM biot-hC1q, competitor plate-coated hIgM
[12] = biological target: T1, native human complement component C1q …; assay: competition ELISA, 6 nM biot-hC1q, competitor plate-coated hIgG2-k
[13] = biological target: T1, native human complement component C1q …; assay: competition ELISA, 30 pM biot-hC1q, competitor plate-coated hIgG1-k
[14] = biological target: T1, native human complement component C1q …; assay: competition ELISA, 30 pM biot-hC1q, competitor plate-coated hIgG3-k

T3 sequence (A6QG30 42-613, tags left off): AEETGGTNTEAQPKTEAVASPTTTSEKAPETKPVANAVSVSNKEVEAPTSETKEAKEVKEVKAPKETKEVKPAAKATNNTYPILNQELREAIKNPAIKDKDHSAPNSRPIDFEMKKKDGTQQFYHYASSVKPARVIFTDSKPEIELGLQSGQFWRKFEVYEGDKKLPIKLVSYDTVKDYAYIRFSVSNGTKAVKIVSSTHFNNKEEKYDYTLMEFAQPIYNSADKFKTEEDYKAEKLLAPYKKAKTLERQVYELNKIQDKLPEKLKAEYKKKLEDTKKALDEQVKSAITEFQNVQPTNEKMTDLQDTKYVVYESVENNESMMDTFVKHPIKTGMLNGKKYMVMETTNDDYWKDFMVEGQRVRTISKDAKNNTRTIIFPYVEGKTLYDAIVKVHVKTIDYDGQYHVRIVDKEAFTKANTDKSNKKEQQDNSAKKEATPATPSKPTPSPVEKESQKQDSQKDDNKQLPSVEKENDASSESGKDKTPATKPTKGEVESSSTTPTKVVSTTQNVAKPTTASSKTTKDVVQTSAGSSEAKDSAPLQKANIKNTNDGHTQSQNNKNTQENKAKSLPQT
T1 sequence (P02745 23-245 limits assumed, chain 1 of 3): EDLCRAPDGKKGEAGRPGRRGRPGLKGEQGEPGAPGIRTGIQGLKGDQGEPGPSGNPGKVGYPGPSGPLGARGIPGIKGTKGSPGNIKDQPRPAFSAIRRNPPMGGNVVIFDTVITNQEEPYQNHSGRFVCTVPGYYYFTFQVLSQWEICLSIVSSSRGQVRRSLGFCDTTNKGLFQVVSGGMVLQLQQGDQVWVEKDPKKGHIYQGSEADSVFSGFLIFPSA
T1 sequence (P02746 28-253 limits assumed, chain 2 of 3): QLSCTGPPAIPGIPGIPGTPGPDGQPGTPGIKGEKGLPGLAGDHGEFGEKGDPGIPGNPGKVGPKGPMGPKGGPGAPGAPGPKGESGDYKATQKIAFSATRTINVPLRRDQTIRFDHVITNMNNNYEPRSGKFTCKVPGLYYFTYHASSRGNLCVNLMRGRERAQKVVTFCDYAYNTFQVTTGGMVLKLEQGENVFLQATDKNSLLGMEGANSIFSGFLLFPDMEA
T1 sequence (P02747 29-245 limits assumed, chain 3 of 3): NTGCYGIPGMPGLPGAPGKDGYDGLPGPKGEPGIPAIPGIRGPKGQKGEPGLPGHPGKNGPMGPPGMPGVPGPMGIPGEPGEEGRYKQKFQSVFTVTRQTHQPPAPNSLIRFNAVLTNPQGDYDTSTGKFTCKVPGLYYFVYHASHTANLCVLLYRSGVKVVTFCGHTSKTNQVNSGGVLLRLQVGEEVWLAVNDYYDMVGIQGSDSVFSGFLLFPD
T2 sequence (Q2FZF0 41-613): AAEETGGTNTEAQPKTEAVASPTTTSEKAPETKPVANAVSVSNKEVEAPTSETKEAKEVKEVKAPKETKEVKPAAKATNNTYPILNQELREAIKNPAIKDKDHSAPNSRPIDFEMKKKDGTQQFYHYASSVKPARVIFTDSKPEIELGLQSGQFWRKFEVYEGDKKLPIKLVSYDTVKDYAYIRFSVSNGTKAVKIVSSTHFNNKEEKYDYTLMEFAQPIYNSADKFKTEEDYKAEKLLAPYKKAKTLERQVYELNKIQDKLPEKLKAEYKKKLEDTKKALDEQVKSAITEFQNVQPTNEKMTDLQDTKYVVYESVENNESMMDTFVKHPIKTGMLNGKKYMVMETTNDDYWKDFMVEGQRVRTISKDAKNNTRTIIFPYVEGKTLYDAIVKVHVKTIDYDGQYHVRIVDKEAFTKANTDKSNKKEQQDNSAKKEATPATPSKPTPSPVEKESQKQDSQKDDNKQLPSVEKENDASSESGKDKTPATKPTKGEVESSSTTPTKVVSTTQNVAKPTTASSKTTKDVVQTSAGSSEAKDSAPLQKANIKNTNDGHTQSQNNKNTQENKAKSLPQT

B1: H1H20631D (bispecific antibody, V domains shown)
VH 1: EVQLVESGGGLVQPGRSLRLSCTTSGFTFDDYAMHWVRQVPGQGLEWVAGLSWNSDTIGYADSVKGRFTISRDNAKNSLYLQMKSLKAEDTALYYCTKDFYHSLNNWNYYYFDYWGQGTLVTVSS
VH 2: EVQLVESGGGVVQPGGSLRLSCAASGFSLDDYAMHWVRQTPGKGLEWVSLISGDGSRTSYADSVKGRFTISRDNSKNSLYLKMNSLRTEDTALYYCTKDPHNSNWFDPWGQGTLVTVSS
VL: not shown
notes: H1H = human IgG1 Fc; also called anti-IsdB x anti-C1q bispecific antibody
Question: For B1, which “Classical Pathway hemolysis assay % inhibition” value [1] is on record?
Answer: 100%

Question: What about the “Classical Pathway hemolysis assay IC50” value [1] of the same binder?
Answer: 2.67 nM

Question: What about the “inhibition of CDC of Daudi cells, IC50 [M]” value [2] of the same binder?
Answer: > 1e-07 M

Question: What about the “inhibition of CDC of Daudi cells, Max % Inhibition” value [2] of the same binder?
Answer: 94%

Question: And the “C1q deposition on S. aureus Cowan I EC50” value [3]?
Answer: 0.297 nM

Question: And the EC50 [4]?
Answer: 1.26 nM

Question: And the t½ [5]?
Answer: 7.01 min

Question: What about the t1/2 [6] of the same binder?
Answer: 5.19 min

Question: What about the Kd [7] of the same binder?
Answer: 2.36 nM

Question: And the t½ [7]?
Answer: 42.8 min

Question: What about the Kd [8] of the same binder?
Answer: 3.43 nM

Question: And the t1/2 [8]?
Answer: 20.7 min

Question: And the Kd [9]?
Answer: 0.228 nM

Question: And the Kd [10]?
Answer: 0.193 nM

B2: H1H20635D (bispecific antibody, V domains shown)
VH 1: EVQLVESGGGLVQPGRSLRLSCTTSGFTFDDYAMHWVRQVPGQGLEWVAGLSWNSDTIGYADSVKGRFTISRDNAKNSLYLQMKSLKAEDTALYYCTKDFYHSLNNWNYYYFDYWGQGTLVTVSS
VH 2: EVQLVQSGAEVKKPGESLKIFCKGSGYSFINDWIGWVRQMPGKGLEWMGLIFPGDSDTRYSPVFQGHVTISADQSIDTAYLQWNSLKASDTAIYYCAVLRYWHFAIWGRGTLVTVSS
VL: not shown
notes: also called anti-IsdB x anti-C1q bispecific antibody
Question: With B2 as the binder, how does the “Classical Pathway hemolysis assay % inhibition” value [1] read?
Answer: 97%

Question: What about the “Classical Pathway hemolysis assay IC50” value [1] of the same binder?
Answer: 8.88 nM

Question: And the “inhibition of CDC of Daudi cells, IC50 [M]” value [2]?
Answer: 2.8e-08 M

Question: What about the “inhibition of CDC of Daudi cells, Max % Inhibition” value [2] of the same binder?
Answer: ≥ 99%

Question: And the “C1q deposition on S. aureus Cowan I EC50” value [3]?
Answer: 0.425 nM

Question: What about the EC50 [4] of the same binder?
Answer: 1.96 nM

Question: What about the koff [5] of the same binder?
Answer: 0.00452 s⁻¹

Question: What about the kon [5] of the same binder?
Answer: 1.46e+07 M⁻¹ s⁻¹

Question: What about the t½ [5] of the same binder?
Answer: 2.56 min

Question: And the koff [6]?
Answer: 0.0174 s⁻¹

Question: What about the kon [6] of the same binder?
Answer: 2.41e+07 M⁻¹ s⁻¹

Question: What about the t1/2 [6] of the same binder?
Answer: 0.66 min

Question: What about the Kd [7] of the same binder?
Answer: 1.7 nM

Question: And the koff [7]?
Answer: 0.000204 s⁻¹

Question: And the kon [7]?
Answer: 120000 M⁻¹ s⁻¹

Question: And the t½ [7]?
Answer: 56.6 min

Question: What about the Kd [8] of the same binder?
Answer: 3.33 nM

Question: What about the koff [8] of the same binder?
Answer: 0.00052 s⁻¹

Question: And the kon [8]?
Answer: 156000 M⁻¹ s⁻¹

Question: And the t1/2 [8]?
Answer: 22.2 min

Question: What about the “% Blockade with 600 nM bispecific Ab” value [11] of the same binder?
Answer: 93%

Question: And the IC50 [11]?
Answer: 12 nM

Question: What about the “% Blockade with 600 nM bispecific Ab” value [12] of the same binder?
Answer: 84%

Question: What about the IC50 [12] of the same binder?
Answer: 16 nM

Question: What about the “% Blockade with 30 nM bispecific Ab” value [13] of the same binder?
Answer: 87%

Question: What about the “% Blockade with 30 nM bispecific Ab” value [14] of the same binder?
Answer: 53%

Question: And the Kd [9]?
Answer: 0.309 nM

Question: And the Kd [10]?
Answer: 0.723 nM
